For orientation: EC50 means the concentration that produces a half-maximal response. A low value points to a more potent agent.

The record followed here is patent publication US20210009686A1 (published 2021).

For the experiment, the target named is CLDN18.2. As to the kind of experiment: FACS binding, KATO III cells. In general terms: In flow cytometry, cells or beads pass a laser one at a time.

B1: IMAB362 (antibody, V domains shown)
VH: QVQLQQPGAELVRPGASVKLSCKASGYTFTSYWINWVKQRPGQGLEWIGNIYPSDSYTNYNQKFKDKATLTVDKSSSTAYMQLSSPTSEDSAVYYCTRSWRGNSFDYWGQGTTLTVSS
VL: DIVMTQSPSSLTVTAGEKVTMSCKSSQSLLNSGNQKNYLTWYQQKPGQPPKLLIYWASTRESGVPDRFTGSGSGTDFTLTISSVQAEDLAVYYCQNDYSYPFTFGSGTKLEIKR
As to B1, the response was half-maximal at 0.67 µg/mL (EC50).
